Measured values reported in patent publication US20230285509A1, “INTERFERON-BASED DISEASE TREATMENT METHOD” (XIAMEN AMOYTOP BIOTECH CO., LTD., priority 2019, published 2023).
“And” between values parts separate entries of the source, which are not always exact repeats. Equal entries are not always repeated.

B1: deglycosylated mIFN-α4: recombinant mouse interferon α4 expressed in Pichia pastoris, glycosyl groups removed with glycosidase (protein, UniProt P07351 25-186, looked up)
Interferon alpha-4: CDLPHTYNLGNKRALTVLEEMRRLPPLSCLKDRKDFGFPLEKVDNQQIQKAQAILVLRDLTQQILNLFTSKDLSATWNATLLDSFCNDLHQQLNDLKACVMQEPPLTQEDSLLAVRTYFHRITVYLRKKKHSLCAWEVIRAEVWRALSSSTNLLARLSEEKE
modifications: deglycosylated
notes: recombinant mouse interferon α4 expressed in Pichia pastoris, glycosyl groups removed with glycosidase
B2: PEG-mIFN-α4: PEGylated recombinant mouse interferon α4: deglycosylated mIFN-α4 modified with 40 kD Y-type polyethylene glycol succinimide ester (YPEG-NHS) (protein, UniProt P07351 25-186, looked up)
Interferon alpha-4: B1 Interferon alpha-4
modifications: 40 kD Y-type PEG, deglycosylated

Tests used:
liver cancer H22 = assay: Liver cancer H22 in mice, tumor volume (Example 7); type: in vivo, BALB/c mice; details: 18 days after tumor inoculation; once a week; PEG-mIFN-α4 1.0 μg/w sc, gemcitabine 60 mg/kg/w ip
Method: The average tumor volume for each individual group was calculated based on the formula V=1/2ab^2 (a and b represent length and width (mm) respectively) by measuring the tumor diameter, and the anti-tumor effect was observed dynamically.
Statistical tests were all two-sided tests.

lung cancer LLC = assay: Lung cancer LLC in mice, tumor volume (Example 8); type: in vivo, C57BL/6N mice; details: 24 days after tumor inoculation; once a week; PEG-mIFN-α4 1.0 μg/w sc, gemcitabine 60 mg/kg/w ip
Source text: (§1) The anticancer agent was gemcitabine (Jiangsu Hansoh Pharmaceutical Group Co., Ltd). […] Statistical tests were all two-sided tests.

colorectal cancer CT26 = assay: Colorectal cancer CT26 in mice, tumor volume (Example 9); type: in vivo, BALB/c mice; details: day 43; once a week; PEG-mIFN-α4 1.0 μg/w sc, gemcitabine 60 mg/kg/w ip
Source text: as §1

melanoma B16 = assay: Melanoma B16 in mice, tumor volume (Example 10); type: in vivo, C57BL/6N mice; details: 14 days after tumor inoculation; once a week; PEG-mIFN-α4 1.0 μg/w sc, gemcitabine 60 mg/kg/w ip
Source text: as §1

[1] = tested on: transplanted liver cancer H22; assay: Transplanted liver cancer H22 in mice, survival, gemcitabine combination (Example 11); type: in vivo, BALB/c mice; details: gemcitabine 60 mg/kg ip once a week
Method: After being divided into groups, the corresponding drugs or saline were administered. […] With respect to the intermittent administration, it was administered once every 48 hours, for three times continuously, before discontinuation of 144 hours. Gemcitabine was administered by intraperitoneal injection at a dose of 60 mg per kilogram of body weight each time, once a week. The normal saline control group was given an equal volume of normal saline. The PEG-mIFN-α4 intermittent administration combined with gemcitabine group was given gemcitabine during the first injection of PEG-mIFN-α4, and then administered with gemcitabine once a week thereafter. All groups were subjected to survival analysis to compare differences between groups.

[2] = tested on: mouse fibroblast/encephalomyocarditis virus (L929/EMCV); assay: Mouse fibroblast/encephalomyocarditis virus (L929/EMCV) cytopathic inhibition method; type: cell-based; details: commercial mIFN-α4 (R&D) as the standard
Method: (§2) The bacterial endotoxin content of the deglycosylated mIFN-α4 stock solution was determined by the Limulus reagent method as lower than 60 EU/mg. specific activity was determined as 5.4×10^8 U/mg by using the commercial mIFN-α4 (R&D, catalog number 12115-1) as the standard, and by using the mouse fibroblast/encephalomyocarditis virus (L929/EMCV) cytopathic inhibition method.
as §2, with “PEG-mIFN-α4” for “deglycosylated mIFN-α4”, “15” for “60”, “Specific” for “specific”, “6.1×10^6” for “5.4×10^8”

[3] = set-up: species or system BALB/c mice; details: mouse, in vivo, sc
Method: In this example, BALB/c mice were purchased from Beijing Vital River Laboratory Animal Technology Co., Ltd. The blood concentration of PEG-mIFN-α4 was detected by double-antibody sandwich ELISA.
6-8 weeks old, SPF grade BALB/c mice (N=60, with fifty-fifty of male and female mice) were injected with a single injection of 1 μg/mouse PEG-mIFN-α4 subcutaneously on the back of the neck. Plasma samples were collected before the injection (0 h) and after the injection at 15 h, 24 h, 36 h, 48 h, 72 h, 96 h, 120 h, 168 h, 216 h, 264 h, 312 h, to determine the blood concentration. Phoenix WinNonlin 6.4 software was used to calculate the pharmacokinetic parameters.

[4] = tested on: transplanted liver cancer H22; assay: Continuous vs intermittent administration, transplanted liver cancer H22 in mice, survival (Example 6); type: in vivo, BALB/c mice

Molecule | Mean tumor volume (Standard deviation) (liver cancer H22) | Mean tumor volume (Standard deviation) (lung cancer LLC) | Mean tumor volume (Standard deviation) (colorectal cancer CT26) | Mean tumor volume (Standard deviation) (melanoma B16) | mortality rate ([1]; by day 41, PEG-mIFN-α4 1 microgram per mouse intermittent) [%] | Median survival period (Time after tumor inoculation, days) [1] [days] | Specific activity [2] | Cl_F—obs [3] [mL/h] | T1/2 (elimination half-life) [3] [h] | Tmax (plasma concentration peak time) [3] [h] | Vz_F—obs [3] [mL] | Median survival period (Time after tumor inoculation, days) ([4]; continuous administration: 1 microgram per animal sc once every 48 hours, 21 times) | Survival rate during the observation period ([4]; intermittent administration: 1 microgram per animal sc once every 48 hours for 3 times, suspended 144 hours, 4 rounds, Day 40 after tumor inoculation)
Nc1ccn([C@@H]2O[C@H](CO)[C@@H](O)C2(F)F)c(=O)n1 [Gemcitabine, reference compound] | 1619.3 (911.2) mm^3 | 1466.6 (791.5) mm^3 | 1558.2 (2225.2) mm^3 | 2279.9 (807.6) mm^3 | 73.1 | 21.5 | – | – | – | – | – | – | –
B1 | – | – | – | – | – | – | 5.4×10^8 U/mg | – | – | – | – | – | –
B2 | 846.2 (592.0) mm^3 | 4000.8 (2513.7) mm^3 | 5283.7 (5030.5) mm^3 | 1639.7 (979.5) mm^3 | – | – | 6.1×10^6 U/mg | 0.07 | 28.3 | 24 | 2.91 | 38 days and 38.0 days | 93.3% and 93.3%.
